Data on one substance can be found in patent US20160313325A1.

Assay [1] has as its target gp41 of mutant "G-I-A" (pNL-Bal with Valine to Alanine at position 38 of gp41) (HIV-1 clone BAL2 (subtype B, CCR5-tropic)).
Assay [2] addresses gp41 of mutant "D-I-A" (pNL-Bal with Glycine to Aspartic Acid at position 36 and Valine to Alanine at position 38 of gp41) (HIV-1 clone BAL2 (subtype B, CCR5-tropic)).
Assay [3] deals with gp41 of mutant "G-I-A" (pNL-Bal with Valine to Alanine at position 38 of gp41) (HIV-1 clone BAL2 (subtype B, CCR5-tropic)). This is another data set of the same source.
The target of assay [4] is gp41 of pNL4-3 (HIV-1 pNL4-3 (subtype B, CXCR4-tropic)).

The substance T20 (Enfuvirtide, Fuzeon) (peptide) returned a Resistance factor (IC50mut/IC50wt) IC50 fold increase in assay [1] of 13 fold. Also, in assay [2], the IC50 (nM), inhibition of viral replication, deCIPhR was 2270 nM and the Rf (resistance factor, IC50 on mutant virus / IC50 on reference strain) is 227 fold. In addition, in assay [3], the IC50 (nM), inhibition of viral replication, deCIPhR was found to be 127 nM and the Rf (resistance factor, IC50 on mutant virus / IC50 on reference strain) was 12.7 fold. For the same substance, in assay [4], the IC50 (nM), inhibition of viral replication, deCIPhR cell to cell infection was found to be 76 nM and the IC50 (nM), inhibition of viral replication, virus to cell infection amounted to 48 nM.
